Measurements published in the DeepSol protein solubility set.

experiment: soluble on expression in E. coli; label from the status in PepcDB or PDB records

Sequence	soluble on expression in E. coli
MAGEKFQKKGKEKWKEKVWYTVEAPPYLGSKEVSVALGEDSNSMVNRVVEVPISELTGNFKKSNEKALFRITNCEGTKCKTIFIGHYIGDDYIRRLVRRRKERIDIIEDVKTSDNSIITVKIVVVTDGKVTNTKKFQIRKVLTDFILNKGLSLPYSEFVRYLIGDDIYNDMISATKDIYPLKKIEVRKSELVSLSGISEIHAGSQNSGEEPVVQNLEHHHHHH	not soluble
MAGGDDLKLLGAWPSPFVTRVKLALALKGLSYEDVEEDLYKKSELLLKSNPVHKKIPVLIHNGAPVCESMIILQYIDEVFASTGPSLLPADPYERAIARFWVAYVDDKLVAPWRQWLRGKTEEEKSEGKKQAFAAVGVLEGALRECSKGGGFFGGDGVGLVDVALGGVLSWMKVTEALSGDKIFDAAKTPLLAAWVERFIELDAAKAALPDVGRLLEFAKAREAAAAASK	soluble
MAGIEITVIDYYHSKINKDSKMEIKIGELPKVLNKTYLGKLNATPSMNNPVKDTQGGEKQMESMLAYIKQKGWAGESKPNFVMNRNVIGAIPSSTGVENFIVFKTNDVQVIVKTPKEKGQESEGNQMEPWKSLIYGVNFEHHCTKTANEPLPTNDAVTKAVLKAHVPRTQEGSNNSSYSILYSAQIDGIDDKRQHYEMKVLNGGLTKYHLENSSCWFYWQSVFGNCNTLIVGSRTGKQDQDPKTLTKTRERQREELDDISYVSKFVSFSFKT	soluble
MAGKKTITINGVEMEASEEQTVLQLLNNSSIEVPQVCYHPSLGPIETCDTCIVSINGELKRSCSAELKDGDVIDTLSPDVKKAQVIGMDKILYNHELYCTVCDYNNGGCEIHNTVKEMKINHQSIPFDHKPYHKDESHPFYRYDPDQCILCGRCVEACQDVQVTETLTIDWERKRPRVIWDNDVPINESSCVSCGHCSTVCPCNAMMEKGMEGEAGYLTGINNETLRPMIEITKGVETGYGSILAISDMESAMRDERIKKTKTVCTYCGVGCSFDVWTKGRDILKVEPQEEAPANGISTCVKGKFGWDFVNSEERLTKPLIREGDHFREAEWEEALLLIASKFTELKEAFGPDSLAFITSSKCTNEESYLMQKLARGVIGTNNVDNCSRYCQSPATAGLFRTVGYGGDSGSITDIAQADLVLIIGSNTSESHPVLSTRIKRAHKLRGQKVIVADIRKHEMAERSDLFVQPRAGSDIVWLNAIAKYLIENGKADERFLRERVNGRDEYVKSLAPYTLEYAEEKTGIDQETLIQMAEMIGQADSVCALWAMGVTQHIGGSDTSTAISNLLLVTGNYGKPGAGSYPLRGHNNVQGASDFGSMPDRLPGYEKVTDEQVRQKYERVWGVPLPKEPGMTNHEMIEKIHSGQLKAMYVKGEEMGLVDSNINHVHAAYEKLDFFVVQDIFLSRTAEFADVVLPASPSLEKEGTFTNTERRIQRLYQVFEPLGESKPDWQIIMEVANKLGAGWLYEHPADIMEEAAKLSPIYAGVTYERLEGYNSLQWPVNADGKDSPLLFTERFPFPDGKAILYPVQWTEPKEFGEEYDIHVNNGRLLEHFHEGNLTYKSKGISEKTPEVFLEISPELAAERGIQDGTLVRLTSPFGNVKVKCLITDRVKGKEVYLPMNDSGEAAINLLTGSHADKDTDTPAYKETSAKMEILKHDGISPLPKINHRNGNPQPQIGVQVHKKWARKDYIFPGDAVKRGM	not soluble
MAGKPKLHYFNGRGRMEPIRWLLAAAGVEFEEKFIGSAEDLGKLRNDGSLMFQQVPMVEIDGMKLVQTRAILNYIASKYNLYGKDIKERALIDMYTEGMADLNEMILLLPLCRPEEKDAKIALIKEKTKSRYFPAFEKVLQSHGQDYLVGNKLSRADISLVELLYYVEELDSSLISNFPLLKALKTRISNLPTVKKFLQPGSPRKPPADAKALEEARKIFRF	soluble
MAGLFDKQADLYLDARPNYPSEWFSKLADLTDHHGLAWDAATGNGQAALAVAEHYESVVATDVSESQLKLATPHPKINYRHTPTSMTDDELVELIGGENSVDLITVAQGVHWFDLPRFYSVATRLLRKPGGIIAVWGYNDVIVSPEFDAVQYRLHATTLPFWKYPYIQHIFDSYEALPFPFENVGMGSEGEPLKLEMPKTTSFEGIIRMFKSWSAIVTAREKGVELLPESLVRELETAWGGSDLVRSVVYKAFMIAGKVRV	soluble
